# Test results: the supplement of paper PMC7877785
# ± gives the uncertainty stated by the source.
# Assay: self-splicing fitness, log relative to wild type (ln ratio); higher = more splicing; Tetrahymena group I intron in knt gene, E. coli kanamycin selection, DiMSum; sequences stand for … in CUCUCU…GGAGGGAAAAGUUAUCAGGCAUGCACCUGGUAGCUAGUCUUUAAACCAAUAGAUUGCAUCGGUUUAAAAGGCAAGACCGUCAAAUUGCGGGAAAGGGGUCAACAGCCGUUCAGUACCAAGUCUCAGGGGAAACUUUGAGAUGGCCUUGCAAAGGGUAUGGUAAUAAGCUGACGGACAUGGUCCUAACCACGCAGCCAAGUCCUAAGUCAACAGAUCUUCUGUUGAUAUGGAUGCAGUUCACAGACUAAAUGUCGGUCGGGGAAGAUGUAUUCUUCUCAUAAGAUAUAGUCGGACCUCUCCUUAAUGGGAGCUAGCGGAUGAAGUGAUGCAACACUGGAGCCGCUGGGAACUAAUUUGUAUGCGAAAGUAUAUUGAUUAGUUUUGGAGUACUCGUGGUCG
# Method in brief: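 DiMSum derived fitness as the error-weighted combination of fold changes across replicates, kanamycin versus no kanamycin, normalised to wild type. E. coli BL21(DE3) held the library, which randomised all eight P1ex-region intron nucleotides within the knt kanamycin-resistance gene on pET-22b(+). Six replicate transformations grew overnight at 37°C or 30°C on LB agar with or without 25 μg/mL kanamycin, also containing 100 μg/mL carbenicillin, 50 μM IPTG and 0.2% rhamnose, and pooled colonies were amplicon-sequenced on an Illumina HiSeq 2500.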
Sequence,self-splicing fitness (ln) (30 °C),self-splicing fitness (ln) (37 °C)
AUUAAGCAAUAUUACGCCUU,-0.293 ± 0.16,0.373 ± 0.19
CUGCAGCAAUAUUACGUUAC,-4.46 ± 0.28,-3.08 ± 0.24
GUUAAGCAAUAUUACGGAUA,-2.09 ± 0.12,-1.61 ± 0.16
GGCAAGCAAUAUUACGAAUG,-2.14 ± 0.15,-1.45 ± 0.16
UAUGAGCAAUAUUACGUGAA,-2.98 ± 0.33,-1.35 ± 0.17
AACUAGCAAUAUUACGCUCU,-0.509 ± 0.12,0.627 ± 0.11
UUCAAGCAAUAUUACGGUAC,-2.8 ± 0.2,-2.71 ± 0.36
CUUUAGCAAUAUUACGUAGG,-1.05 ± 0.094,-0.65 ± 0.13
UCGGAGCAAUAUUACGGCUU,-3.05 ± 0.32,-1.45 ± 0.35
CAGGAGCAAUAUUACGUCAC,–,-1.92 ± 0.44
ACAUAGCAAUAUUACGUCUG,-1.24 ± 0.071,-0.845 ± 0.09
UAACAGCAAUAUUACGCGGA,-2.12 ± 0.11,0.0542 ± 0.076
GCUGAGCAAUAUUACGCUAA,-3.04 ± 0.32,–
UGAGAGCAAUAUUACGCUCA,–,-1.22 ± 0.38
GUUCAGCAAUAUUACGCCAG,-2.06 ± 0.29,–
AUACAGCAAUAUUACGUACG,-0.772 ± 0.1,0.0144 ± 0.12
GAGUAGCAAUAUUACGGGCC,-2.52 ± 0.15,-1.32 ± 0.13
UAAAAGCAAUAUUACGGGUA,-0.918 ± 0.09,-0.192 ± 0.095
UAGAAGCAAUAUUACGCGCG,-0.301 ± 0.12,-0.204 ± 0.13
AUACAGCAAUAUUACGCUUA,-1.67 ± 0.12,-0.741 ± 0.099
CUACAGCAAUAUUACGCGGA,-3.06 ± 0.25,-3 ± 0.27
GUACAGCAAUAUUACGCGCU,-1.36 ± 0.13,-0.689 ± 0.19
AGGCAGCAAUAUUACGGCUG,-2.3 ± 0.35,–
UUACAGCAAUAUUACGGUCA,-0.595 ± 0.075,-0.209 ± 0.088
UGAUAGCAAUAUUACGUACC,-1.76 ± 0.2,-1.6 ± 0.26

Sequence,self-splicing fitness (ln) (30 °C),self-splicing fitness (ln) (37 °C)
CUCAAGCAAUAUUACGCAUU,-3.4 ± 0.15,-2.7 ± 0.19
GAUAAGCAAUAUUACGCGAA,-2.31 ± 0.093,-1.65 ± 0.11
CUACAGCAAUAUUACGUGAC,-1.02 ± 0.09,-0.853 ± 0.14
UACCAGCAAUAUUACGAGGC,-4.87 ± 0.26,-2.23 ± 0.15
UCGAAGCAAUAUUACGCGGG,-2.18 ± 0.19,-1.68 ± 0.19
GUGUAGCAAUAUUACGACUU,-0.0355 ± 0.15,-0.00223 ± 0.19
UCGAAGCAAUAUUACGGGUU,-4.87 ± 0.29,-1.47 ± 0.14
UUCGAGCAAUAUUACGCAUA,-3.18 ± 0.42,-1.39 ± 0.26
GGAUAGCAAUAUUACGACUU,0.215 ± 0.18,0.847 ± 0.17
GAGUAGCAAUAUUACGUCAA,-2.1 ± 0.19,-1.8 ± 0.23
GGGGAGCAAUAUUACGACGU,-0.89 ± 0.12,-0.094 ± 0.15
UCCCAGCAAUAUUACGGCUC,-2.83 ± 0.14,-2.31 ± 0.24
ACGUAGCAAUAUUACGAGUA,-3.15 ± 0.21,-1.07 ± 0.12
AAACAGCAAUAUUACGCAAG,-2.56 ± 0.13,-1.8 ± 0.14
GGUUAGCAAUAUUACGAUCU,-1.04 ± 0.24,-0.76 ± 0.24
CCAAAGCAAUAUUACGCAGA,-3.75 ± 0.19,-2.65 ± 0.18
CCGCAGCAAUAUUACGUAGA,-3.07 ± 0.17,-1.37 ± 0.12
AAUGAGCAAUAUUACGGACU,-1.59 ± 0.13,-2.04 ± 0.19
AAAUAGCAAUAUUACGUUAC,-3.44 ± 0.22,-2.77 ± 0.27
UUGCAGCAAUAUUACGCGAG,-3.18 ± 0.12,-1.73 ± 0.12
UAGAAGCAAUAUUACGACAC,-1.77 ± 0.43,-2.07 ± 0.25
AUACAGCAAUAUUACGCGAC,-1.87 ± 0.14,-1.97 ± 0.22
AUGAAGCAAUAUUACGUCAU,-2.43 ± 0.093,-1.19 ± 0.083
UUUCAGCAAUAUUACGAUGA,-0.807 ± 0.081,-0.285 ± 0.075
